This note sets out measurements from patent EP4792830A2.

Read-outs that look alike come from different tables or passages of the source.

Assay [1] has as its target endogenous TFPI in human plasma (human), P10646. Kind of assay: cell-based or functional assay.
Assay [2] shares this target. In words: cell-based or functional assay. This is another data set of the same source.

B1: TFPI-24 (antibody, human IgG1, lambda)
heavy: EVQLVESGGGSVQPGRSLRLSCAVSGLTIDNYAMQWVRQRPGKGLEWVSGISGNSRSIGYADSVKGRLTISRDNAKNSLYLQIDSLRADDTALYYCAIFLHESDYWGQGTLVTVSSASTKGPSVFPLAPSSKSTSGGTAALGCLVKDYFPEPVTVSWNSGALTSGVHTFPAVLQSSGLYSLSSVVTVPSSSLGTQTYICNVNHKPSNTKVDKKVEPKSCDKTHTCPPCPAPEAAGAPSVFLFPPKPKDTLMISRTPEVTCVVVDVSHEDPEVKFNWYVDGVEVHNAKTKPREEQYNSTYRVVSVLTVLHQDWLNGKEYKCKVSNKALPAPIEKTISKAKGQPREPQVYTLPPSREEMTKNQVSLTCLVKGFYPSDIAVEWESNGQPENNYKTTPPVLDSDGSFFLYSKLTVDKSRWQQGNVFSCSVMHEALHNHYTQKSLSLSPG
light: not shown
In the case of B1, in assay [1], the EC50 (dilute prothrombin time, clotting time) stood at 0.57 nM and the TGA Velocity Index at 20 nM came out at 23.2.

B2: TFPI-118 (antibody, human IgG1, lambda)
heavy: EVQLVESGGGLVQPGRSLRLSCAVSGLTIDNYAMQWVRQAPGKGLEWVSGISGNSRSIGYADSVKGRFTISRDNAKNSLYLQMNSLRAEDTALYYCAIFLHESDYWGQGTLVTVSSASTKGPSVFPLAPSSKSTSGGTAALGCLVKDYFPEPVTVSWNSGALTSGVHTFPAVLQSSGLYSLSSVVTVPSSSLGTQTYICNVNHKPSNTKVDKKVEPKSCDKTHTCPPCPAPEAAGAPSVFLFPPKPKDTLMISRTPEVTCVVVDVSHEDPEVKFNWYVDGVEVHNAKTKPREEQYNSTYRVVSVLTVLHQDWLNGKEYKCKVSNKALPAPIEKTISKAKGQPREPQVYTLPPSREEMTKNQVSLTCLVKGFYPSDIAVEWESNGQPENNYKTTPPVLDSDGSFFLYSKLTVDKSRWQQGNVFSCSVMHEALHNHYTQKSLSLSPG
light: not shown
For the molecule B2, in assay [1], the Dilute PT EC50 was 1.16 nM; the EC50 (dilute prothrombin time, clotting time) amounted to 1.16 nM; the TGA Velocity EC50 was 7.72 nM.

B3: 2A8-200 (antibody, human IgG1, lambda)
heavy: QVQLVESGGGLVQPGGSLRLSCAASGFTFRSYGMDWVRQAPGKGLEWVSSIRGSRSSTYYADSVKGRFTISRDNSKNTLYLQMNSLRAEDTAVYYCARLYRYWFDYWGQGTLVTVSSASTKGPSVFPLAPSSKSTSGGTAALGCLVKDYFPEPVTVSWNSGALTSGVHTFPAVLQSSGLYSLSSVVTVPSSSLGTQTYICNVNHKPSNTKVDKKVEPKSCDKTHTCPPCPAPEAAGAPSVFLFPPKPKDTLMISRTPEVTCVVVDVSHEDPEVKFNWYVDGVEVHNAKTKPREEQYNSTYRVVSVLTVLHQDWLNGKEYKCKVSNKALPAPIEKTISKAKGQPREPQVYTLPPSREEMTKNQVSLTCLVKGFYPSDIAVEWESNGQPENNYKTTPPVLDSDGSFFLYSKLTVDKSRWQQGNVFSCSVMHEALHNHYTQKSLSLSPG
light: DIELTQPPSVSVAPGQTARISCSGDNLRNYYAHWYQQKPGQAPVVVIFYDVNRPSGIPERFSGSNSGNTATLTISGTQAEDEADYYCQSWWDGVPVFGGGTKLTVLGQPKAAPSVTLFPPSSEELQANKATLVCLISDFYPGAVTVAWKADSSPVKAGVETTTPSKQSNNKYAASSYLSLTPEQWKSHRSYSCQVTHEGSTVEKTVAPTECS
In assay [1], B3 showed a Dilute PT EC50 of 1 nM.

B4: 4D8.b1 (antibody, mouse IgG1, kappa)
heavy: EVLLQQSGPELVKPGASVKIPCKASGYTFTDYNLDWVKQSHGKSLEWIGDINPINGATLYNQKFKGKATLTVDQSSSTAYMELRSLTSEDTAVYYCSIYYGDYDAMDYWGQGASVTVSSAKTTPPSVYPLAPGSAAQTNSMVTLGCLVKGYFPEPVTVTWNSGSLSSGVHTFPAVLQSDLYTLSSSVTVPSSTWPSETVTCNVAHPASSTKVDKKIVPRDCGCKPCICTVPEVSSVFIFPPKPKDVLTITLTPKVTCVVVDISKDDPEVQFSWFVDDVEVHTAQTQPREEQFNSTFRSVSELPIMHQDWLNGKEFKCRVNSAAFPAPIEKTISKTKGRPKAPQVYTIPPPKEQMAKDKVSLTCMITDFFPEDITVEWQWNGQPAENYKNTQPIMDTDGSYFVYSKLNVQKSNWEAGNTFTCSVLHEGLHNHHTEKSLSHSPGK
light: DIVMTQSHKFMSTSVGDRVSITCKASQDVHTAVAWYQQKPGQSPRLLIYWASTRHTGVPDRFTGCGSGTDYTLTISSVQAEDLALYYCQQHYTTPYTFGGGTKLEMKADAAPTVSIFPPSSEQLTSGGASVVCFLNNFYPKDINVKWKIDGSERQNGVLNSWTDQDSKDSTYSMSSTLTLTKDEYERHNSYTCEATHKTSTSPIVKSFNRNEC
In the case of B4, the TGA Velocity Index at 20 nM in assay [1] was 13.5; in assay [2] it was 26.3.

B5: hz4D8 (antibody, human IgG1, kappa)
heavy: EVQLVESGGGLVQPGGSLRLSCAASGYTFTDYNLDWVRQAPGKGLEWVADINPINGATLYNQKFKGRFTISRDQAKNSLYLQMNSLRAEDTAVYYCARYYGDYDAMDYWGQGTLVTVSSASTKGPSVFPLAPSSKSTSGGTAALGCLVKDYFPEPVTVSWNSGALTSGVHTFPAVLQSSGLYSLSSVVTVPSSSLGTQTYICNVNHKPSNTKVDKKVEPKSCDKTHTCPPCPAPEAAGAPSVFLFPPKPKDTLMISRTPEVTCVVVDVSHEDPEVKFNWYVDGVEVHNAKTKPREEQYNSTYRVVSVLTVLHQDWLNGKEYKCKVSNKALPAPIEKTISKAKGQPREPQVYTLPPSREEMTKNQVSLTCLVKGFYPSDIAVEWESNGQPENNYKTTPPVLDSDGSFFLYSKLTVDKSRWQQGNVFSCSVMHEALHNHYTQKSLSLSPG
light: DIQMTQSPSSLSASVGDRVTITCKASQDVHTAVAWYQQKPGKAPKLLIYWASTRHTGVPSRFSGSGSGTDYTLTISSLQPEDFATYYCQQHYTTPYTFGQGTKLEIKRTVAAPSVFIFPPSDEQLKSGTASVVCLLNNFYPREAKVQWKVDNALQSGNSQESVTEQDSKDSTYSLSSTLTLSKADYEKHKVYACEVTHQGLSSPVTKSFNRGEC
For B5, in assay [1], the Dilute PT EC50 was determined as 0.47 nM; the EC50 (dilute prothrombin time, clotting time) turned out to be 0.47 nM; the TGA Velocity EC50 worked out at 3.9 nM; the TGA Velocity Index at 20 nM amounted to 15.7.
